This note sets out measurements from the supplement of paper PMC10567573.

The labels stand for the following.
B1: IRX6 (parent)
chain: YPCLEKPRIWSLAHTATASAVEGA
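Note: lentivirally expressed fusions sorted by FACS into six bins by GFP to DsRed ratio, PSI derived from sequencing read proportions per bin multiplied by bin number.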

Variants of B1 are the subject of this data set. Kind of data set: protein stability index of a GFP-peptide fusion (GPS, HEK-293T) (PSI 1-6); higher = more stable. The note with it: c terminus: a fixed tail appended.
As to YPCLEKPRIWNLAHTATASAVEGA [S11N], the protein stability index was 2.31.
Take YPCLEKPRIWRLAHTATASAVEGA [S11R]: the protein stability index stood at 2.05.
For YPCLEKPRIWVLAHTATASAVEGA [S11V] the value was 1.99; for YPCLEKPRIWFLAHTATASAVEGA [S11F], 1.94.
Consider YPCLEKPRIWQLAHTATASAVEGA [S11Q], for which the protein stability index was found to be 1.53.
As for YPCLEKPRIWMLAHTATASAVEGA [S11M], the protein stability index worked out at 1.82.
For the variant YPCLEKPRIWYLAHTATASAVEGA [S11Y], the protein stability index was found to be 2.16.
For the variant YPCLEKPRIWLLAHTATASAVEGA [S11L], the protein stability index came out at 1.87.
As for YPCLEKPRIWILAHTATASAVEGA [S11I], the protein stability index is 2.48.
For YPCLEKPRIWALAHTATASAVEGA [S11A], the protein stability index worked out at 1.3.
For YPCLEKPRIWKLAHTATASAVEGA [S11K], the protein stability index is 2.58.
As to YPCLEKPRIWDLAHTATASAVEGA [S11D], the protein stability index is 1.74.
For YPCLEKPRIWELAHTATASAVEGA [S11E] the value was 1.99.
Turning to YPCLEKPRIWCLAHTATASAVEGA [S11C], the protein stability index was 1.61.
In the case of YPCLEKPRIWHLAHTATASAVEGA [S11H], the protein stability index worked out at 1.86.
In the case of YPCLEKPRYWSLAHTATASAVEGA [I9Y], the protein stability index was 2.3.
On to YPCLEKPRSWSLAHTATASAVEGA [I9S], for which the protein stability index is 1.65.
Take YPCLEKPRGWSLAHTATASAVEGA [I9G]: the protein stability index is 2.2.
To YPCLEKPRHWSLAHTATASAVEGA [I9H] belongs 1.25.
To YPCLEKPRDWSLAHTATASAVEGA [I9D] belongs 3.49; to YPCLEKPRVWSLAHTATASAVEGA [I9V], 3.31.
On to YPCLEKPRKWSLAHTATASAVEGA [I9K], for which the protein stability index is 2.46.
As for YPCLEKPRMWSLAHTATASAVEGA [I9M], the protein stability index was 3.85.
Take YPCLEKPRFWSLAHTATASAVEGA [I9F]: the protein stability index came to 2.3.
To YPCLEKPREWSLAHTATASAVEGA [I9E] belongs 3.59.
As to YPCLEKPRTWSLAHTATASAVEGA [I9T], the protein stability index came to 1.51.
YPCLEKPRNWSLAHTATASAVEGA [I9N]: the protein stability index was determined as 2.48.
For the variant YPCLEKPRPWSLAHTATASAVEGA [I9P], the protein stability index was 2.35.
For YPCLEKPRRWSLAHTATASAVEGA [I9R], the protein stability index came out at 2.27.
YPCLEKPRLWSLAHTATASAVEGA [I9L]: the protein stability index came out at 2.98.
Regarding YPCLEKPRCWSLAHTATASAVEGA [I9C], the protein stability index was found to be 1.98.
For the variant YPCLEKPRAWSLAHTATASAVEGA [I9A], the protein stability index is 3.17.
With YPCLEKPRQWSLAHTATASAVEGA [I9Q], the protein stability index is 2.28.
Consider YPCLEKPPIWSLAHTATASAVEGA [R8P], for which the protein stability index amounted to 2.2.
For the variant YPCLEKPNIWSLAHTATASAVEGA [R8N], the protein stability index stood at 3.06.
For YPCLEKPQIWSLAHTATASAVEGA [R8Q] the value was 1.96; for YPCLEKPDIWSLAHTATASAVEGA [R8D], 3.96.
For the variant YPCLEKPFIWSLAHTATASAVEGA [R8F], the protein stability index came to 2.49.
Consider YPCLEKPMIWSLAHTATASAVEGA [R8M], for which the protein stability index worked out at 2.79.
For YPCLEKPLIWSLAHTATASAVEGA [R8L] the value was 3.04; for YPCLEKPCIWSLAHTATASAVEGA [R8C], 3.13.
As for YPCLEKPVIWSLAHTATASAVEGA [R8V], the protein stability index turned out to be 2.48.
With YPCLEKPIIWSLAHTATASAVEGA [R8I], the protein stability index was determined as 2.87.
As for YPCLEKPHIWSLAHTATASAVEGA [R8H], the protein stability index amounted to 1.83.
YPCLEKPYIWSLAHTATASAVEGA [R8Y]: the protein stability index is 2.17.
In the case of YPCLEKPEIWSLAHTATASAVEGA [R8E], the protein stability index amounted to 2.22.
On to YPCLEKPRIWSQAHTATASAVEGA [L12Q], for which the protein stability index amounted to 2.87.
As to YPCLEKPRIWSPAHTATASAVEGA [L12P], the protein stability index worked out at 3.53.
Consider YPCLEKPRIWSKAHTATASAVEGA [L12K], for which the protein stability index was found to be 2.72.
YPCLEKPRIWSCAHTATASAVEGA [L12C]: the protein stability index was found to be 3.12.
As for YPCLEKPRIWSTAHTATASAVEGA [L12T], the protein stability index was found to be 2.72.
To YPCLEKPRIWSVAHTATASAVEGA [L12V] belongs 1.58.
As for YPCLEKPRIWSNAHTATASAVEGA [L12N], the protein stability index turned out to be 1.72.
As to YPCLEKPRIWSDAHTATASAVEGA [L12D], the protein stability index came out at 2.91.
For the variant YPCLEKPRIWSFAHTATASAVEGA [L12F], the protein stability index was 2.26.
For the variant YPCLEKPRIWSMAHTATASAVEGA [L12M], the protein stability index was 2.36.
Turning to YPCLEKPRIWSIAHTATASAVEGA [L12I], the protein stability index was 2.81.
YPCLEKPRIWSGAHTATASAVEGA [L12G]: the protein stability index was found to be 2.03.
As for YPCLEKPRIWSRAHTATASAVEGA [L12R], the protein stability index was determined as 2.19.
Regarding YPCLEKPRIWSEAHTATASAVEGA [L12E], the protein stability index was 1.7.
In the case of YPCLEKPRIDSLAHTATASAVEGA [W10D], the protein stability index is 4.13.
On to YPCLEKPRIESLAHTATASAVEGA [W10E], for which the protein stability index came to 4.71.
For YPCLEKPRIPSLAHTATASAVEGA [W10P] the value was 4.3; for YPCLEKPRIVSLAHTATASAVEGA [W10V], 3.85; for YPCLEKPRITSLAHTATASAVEGA [W10T], 4.09.
YPCLEKPRILSLAHTATASAVEGA [W10L]: the protein stability index worked out at 3.78.
To YPCLEKPRIGSLAHTATASAVEGA [W10G] belongs 4; to YPCLEKPRICSLAHTATASAVEGA [W10C], 3.19; to YPCLEKPRIKSLAHTATASAVEGA [W10K], 4.42.
Consider YPCLEKPRIQSLAHTATASAVEGA [W10Q], for which the protein stability index was 4.16.
To YPCLEKPRIMSLAHTATASAVEGA [W10M] belongs 3.65.
As for YPCLEKPRIHSLAHTATASAVEGA [W10H], the protein stability index amounted to 4.23.
For YPCLEKPRINSLAHTATASAVEGA [W10N] the value was 4.27.
On to YPCLEKPRIYSLAHTATASAVEGA [W10Y], for which the protein stability index came out at 1.62.
Take YPCLEKPRIASLAHTATASAVEGA [W10A]: the protein stability index came to 4.14.
For YPCLEKPRIRSLAHTATASAVEGA [W10R], the protein stability index was 4.26.
For YPCLEKPRIISLAHTATASAVEGA [W10I] the value was 3.27.
Regarding YPCLEKPRISSLAHTATASAVEGA [W10S], the protein stability index worked out at 4.42.
Take YPCLEKPRIFSLAHTATASAVEGA [W10F]: the protein stability index amounted to 1.98.
As to YPCLEKVRIWSLAHTATASAVEGA [P7V], the protein stability index was found to be 1.89.
Consider YPCLEKTRIWSLAHTATASAVEGA [P7T], for which the protein stability index worked out at 3.24.
To YPCLEKQRIWSLAHTATASAVEGA [P7Q] belongs 2.32; to YPCLEKYRIWSLAHTATASAVEGA [P7Y], 2.59.
YPCLEKMRIWSLAHTATASAVEGA [P7M]: the protein stability index was 2.92.
To YPCLEKPRIWSLKHTATASAVEGA [A13K] belongs 2.9; to YPCLEKPRIWSLIHTATASAVEGA [A13I], 3.27.
Take YPCLEKPRIWSLQHTATASAVEGA [A13Q]: the protein stability index came to 2.46.
For the variant YPCLEKPRIWSLGHTATASAVEGA [A13G], the protein stability index turned out to be 2.44.
Regarding YPCLEKPRIWSLPHTATASAVEGA [A13P], the protein stability index was 2.35.
In the case of YPCLEKPRIWSLHHTATASAVEGA [A13H], the protein stability index was determined as 2.74.
As for YPCLEKPRIWSLDHTATASAVEGA [A13D], the protein stability index is 2.71.
To YPCLEKPRIWSLEHTATASAVEGA [A13E] belongs 2.17; to YPCLEKPRIWSLTHTATASAVEGA [A13T], 1.96; to YPCLEKPRIWSLMHTATASAVEGA [A13M], 1.35.
